Experimental data from US20140212976.

Test system: T1, bifurcating NADP Fe-only hydrogenase of C. autoethanogenum
T1 sequence: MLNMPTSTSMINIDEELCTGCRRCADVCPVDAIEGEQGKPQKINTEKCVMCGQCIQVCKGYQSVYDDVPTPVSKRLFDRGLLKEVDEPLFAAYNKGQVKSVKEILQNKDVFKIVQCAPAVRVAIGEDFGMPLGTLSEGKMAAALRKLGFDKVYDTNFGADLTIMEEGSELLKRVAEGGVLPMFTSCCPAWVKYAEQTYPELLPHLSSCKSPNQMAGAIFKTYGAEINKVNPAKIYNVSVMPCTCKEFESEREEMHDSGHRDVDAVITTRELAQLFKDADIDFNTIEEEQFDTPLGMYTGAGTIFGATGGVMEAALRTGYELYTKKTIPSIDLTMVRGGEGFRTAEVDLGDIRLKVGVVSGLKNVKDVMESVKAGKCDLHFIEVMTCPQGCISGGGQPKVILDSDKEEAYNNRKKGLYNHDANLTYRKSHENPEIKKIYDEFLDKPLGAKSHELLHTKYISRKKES

## bifurcating NADP formate dehydrogenase of C. autoethanogenum
  Formate-hydrogen lyase activity (using H2): a high activity of 2.4 U/mg was detected
